Data published in patent US7022815 (GENERAL HOSPITAL, dated 2006).
Several values for one entry are separate records, joined by “and”; a condition that tells them apart may be missing. Equal entries are not always repeated. Non-standard residues stand in square brackets, D forms with d. No end group written: not given here. Nle = CCCC[C@H](N)C(=O)O

T1: human PTH-1 receptor (human, UniProt Q03431 27-593)
T1 sequence (looked up): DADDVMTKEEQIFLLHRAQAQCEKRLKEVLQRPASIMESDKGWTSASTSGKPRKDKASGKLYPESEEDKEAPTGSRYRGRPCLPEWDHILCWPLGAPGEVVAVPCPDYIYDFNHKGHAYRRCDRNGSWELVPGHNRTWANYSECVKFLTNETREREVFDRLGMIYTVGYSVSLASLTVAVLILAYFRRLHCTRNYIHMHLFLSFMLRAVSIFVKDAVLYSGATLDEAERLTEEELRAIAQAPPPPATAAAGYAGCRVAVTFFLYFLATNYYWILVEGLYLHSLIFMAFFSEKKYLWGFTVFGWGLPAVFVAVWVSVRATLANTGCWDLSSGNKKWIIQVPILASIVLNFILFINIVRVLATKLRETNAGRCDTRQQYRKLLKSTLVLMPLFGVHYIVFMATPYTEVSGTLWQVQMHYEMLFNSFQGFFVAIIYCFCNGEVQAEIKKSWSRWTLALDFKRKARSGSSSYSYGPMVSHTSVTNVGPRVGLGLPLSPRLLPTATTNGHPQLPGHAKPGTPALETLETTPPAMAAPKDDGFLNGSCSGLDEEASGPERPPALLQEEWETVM

T2: rat PTH-1 receptor (rat, UniProt P25961 27-591)
T2 sequence (looked up): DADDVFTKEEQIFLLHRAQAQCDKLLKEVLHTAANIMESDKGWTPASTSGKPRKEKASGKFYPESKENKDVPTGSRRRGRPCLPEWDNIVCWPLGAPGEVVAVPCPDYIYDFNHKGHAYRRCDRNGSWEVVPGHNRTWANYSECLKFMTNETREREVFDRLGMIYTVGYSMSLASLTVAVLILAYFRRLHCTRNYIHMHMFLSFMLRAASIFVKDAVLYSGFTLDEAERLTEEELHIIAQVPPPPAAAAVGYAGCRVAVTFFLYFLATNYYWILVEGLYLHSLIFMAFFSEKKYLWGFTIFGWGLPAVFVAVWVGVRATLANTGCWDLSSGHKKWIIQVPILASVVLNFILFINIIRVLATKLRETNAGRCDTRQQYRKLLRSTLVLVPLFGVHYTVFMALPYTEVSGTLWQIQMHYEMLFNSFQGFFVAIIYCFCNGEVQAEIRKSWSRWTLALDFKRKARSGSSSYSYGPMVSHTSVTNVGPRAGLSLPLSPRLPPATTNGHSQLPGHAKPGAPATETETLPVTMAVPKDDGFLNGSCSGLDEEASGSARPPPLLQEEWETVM


What was measured:
human PTH-1 receptor [1] = biological target: T1, human PTH-1 receptor; experiment: cell-based or functional assay
human PTH-2 receptor = human PTH-2 receptor (human, UniProt P49190 25-550); experiment: cell-based or functional assay
Sequence of human PTH-2 receptor (P49190 25-550): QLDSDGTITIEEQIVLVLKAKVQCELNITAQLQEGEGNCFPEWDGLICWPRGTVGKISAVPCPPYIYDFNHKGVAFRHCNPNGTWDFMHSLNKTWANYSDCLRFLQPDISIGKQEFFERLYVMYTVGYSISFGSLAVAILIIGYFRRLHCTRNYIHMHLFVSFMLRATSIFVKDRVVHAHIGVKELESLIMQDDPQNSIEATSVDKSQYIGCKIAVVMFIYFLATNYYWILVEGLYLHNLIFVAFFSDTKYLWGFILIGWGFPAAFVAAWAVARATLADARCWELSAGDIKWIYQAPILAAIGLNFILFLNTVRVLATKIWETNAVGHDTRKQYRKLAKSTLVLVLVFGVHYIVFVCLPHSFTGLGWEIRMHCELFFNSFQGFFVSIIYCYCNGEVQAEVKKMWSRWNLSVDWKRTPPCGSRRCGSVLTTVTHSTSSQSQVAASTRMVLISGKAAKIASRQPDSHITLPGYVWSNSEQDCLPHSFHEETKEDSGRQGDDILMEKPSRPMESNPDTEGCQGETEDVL

human PTH-1 receptor [2] = biological target: T1, human PTH-1 receptor; experiment: cell-based or functional assay; remark: listed apart in the source
human PTH-1 receptor [3] = biological target: T1, human PTH-1 receptor; experiment: cell-based or functional assay; remark: listed apart in the source
human PTH-1 receptor [4] = biological target: T1, human PTH-1 receptor; experiment: cell-based or functional assay; remark: listed apart in the source
rat PTH-1 receptor = biological target: T2, rat PTH-1 receptor; experiment: cell-based or functional assay
[5] = biological target: truncated human PTH-1 receptor hDelNt (human), Q03431; experiment: cell-based or functional assay
human PTH-1 receptor [6] = biological target: T1, human PTH-1 receptor; experiment: competition binding on HKRK-B7 cells, 125I-rPTH(1-34) tracer displaced by varying doses of unlabeled peptide
Experimental: Binding reactions were performed with stably transfected HKRK-B7 cells in 24-well plates. […] Incubations (final volume=300 µL) were at 15° C. for 4 h. Cells were then placed on ice, the binding medium was removed, and the monolayer was rinsed three times with 0.5 mL of cold binding buffer. The cells were subsequently lysed with 0.5 mL 5N NaOH and counted for radioactivity. The non-specific binding for each experiment was determined by competition with a 1 µM dose of unlabeled rPTH(1–34). The maximum specific binding (B_0) was the total radioactivity bound in the absence of unlabeled PTH ligand, corrected for nonspecific binding. Binding $IC50$ values were determined using nonlinear regression (see below).
To determine if these substitutions could enhance the activity of PTH(1–34), the substitutions of Ser3→Ala, Asn10→Ala, Leu11→Arg and Gly12→Ala were introduced into the analog [Ala1,Tyr34]hPTH(1–34) to yield peptide #7.

Row | Binder | cAMP EC50, HKRK-B7 cells (human PTH-1 receptor [1]) | cAMP Emax, HKRK-B7 cells (human PTH-1 receptor [1]) | cAMP EC50, LLC-P2R-22 cells (human PTH-2 receptor) | cAMP Emax, LLC-P2R-22 cells (human PTH-2 receptor) | cAMP potency against controls, HKRK-B7 cells (human PTH-1 receptor [2]) | cAMP EC50, COS-7 cells with WT hPTH-1 receptor (human PTH-1 receptor [3]) | cAMP Emax, COS-7 cells with WT hPTH-1 receptor (human PTH-1 receptor [3]) | cAMP EC50, SAOS-2 cells (human PTH-1 receptor [4]) | cAMP Emax, SAOS-2 cells (human PTH-1 receptor [4]) | cAMP EC50, ROS 17/2.8 cells (rat PTH-1 receptor) | cAMP Emax, ROS 17/2.8 cells (rat PTH-1 receptor) | cAMP Emax, COS-7 cells with hDeINt (picomole/well) [5] | fold improvement in binding affinity, as compared to rPTH(1-34) (human PTH-1 receptor [6]) | cAMP potency against native PTH(1-14) [5] | cAMP potency against native PTH(1-14) (human PTH-1 receptor [2])
1 | AVAEIQLMHARAK-NH2 [[A3, A10, R11, A12]rPTH(1-13)] | -5.6 Log M and 2.4 µM | 239 picomole/well | -4 Log M and 106 µM | 501 picomole/well | – | – | – | – | – | – | – | – | – | – | –
2 | AVAEIQLMHARA-NH2 [[A3, A10, R11, A12]rPTH(1-12)] | -5 Log M and 10.2 µM | 238 picomole/well | -3.5 Log M and 342 µM | 501 picomole/well | – | – | – | – | – | – | – | – | – | – | –
3 | AVAEIQLMHARAKHLNSMERVEWLRKKLQDVHNY-NH2 (also called peptide #7; #7) [[A1, A3, A10, R11, A12, Y34]hPTH(1-34)] | -8.8 Log M and 0.0016 µM | 244 picomole/well | -7.7 Log M and 0.0192 µM | 677 picomole/well | ~2 fold | -3.5 Log M and 313 µM | 222 picomole/well | 0.00011 µM and -9.95 Log M | 272 picomole/well | -9.6 Log M and 0.0002 µM | 395 picomole/well | 251 | ~2 fold | – | –
4 | AVAEIQLMHARAKH-NH2 [[A3, A10, R11, A12]rPTH(1-14)] | -6.1 Log M and 0.83 µM | 264 picomole/well | -3.9 Log M and 126 µM | 292 picomole/well | – | -6 Log M and 4.66 µM | 243 picomole/well | 12.7 µM and -4.9 Log M | 331 picomole/well | -5.2 Log M and 7.3 µM | 395 picomole/well | 250 | – | 100 fold | –
5 | SVSEIQLMHNLGKHLNSMERVEWLRKKLQDVHNY-NH2 [[Tyr^34]human (h)PTH(1-34)NH2] | -8.4 Log M | 270 picomole/well | – | – | – | -9.3 Log M | 226 picomole/well | – | 307 picomole/well | -9.6 Log M and 0.0003 µM | 340 picomole/well | 238 | – | – | –
6 | AVAEIQLMHARAKW-NH2 [[A3, A10, R11, A12, W14]rPTH(1-14)] | -6.3 Log M and 0.6 µM | 262 picomole/well | – | – | – | – | – | – | – | 3.4 µM | 382 picomole/well | – | – | – | 220 fold
7 | AVAEIQLMHAR-NH2 [[A3, A10, R11]rPTH(1-11)] | -4.8 Log M and 17.1 µM | 248 picomole/well | – | – | – | -4.6 Log M and 29.1 µM | 238 picomole/well | 94.7 µM and -4.12 Log M | 235 picomole/well | 133 µM and -3.9 Log M | 377 picomole/well | 243 | – | – | –
8 | AVAEIQLMHQRAKH-NH2 [[A3, Q10, R11, A12]rPTH(1-14)] | -6.1 Log M and 0.8 µM | 235 picomole/well | – | – | – | – | – | – | – | – | – | – | – | – | –
9 | AVSEIQL[Nle]HNLGKHLASVER[Nle]QWLRKKLQDVHNY-NH2 [[Nle^8,21,Tyr^34]-rPTH(1-34)NH2] | -8.6 Log M and 0.0033 µM | 293 picomole/well | -8.4 Log M and 0.0044 µM | 744 picomole/well | – | -9.2 Log M and 0.0007 µM | 226 picomole/well | -9.75 Log M and 0.00018 µM | 272 picomole/well | -9.5 Log M and 0.0003 µM | 364 picomole/well | 243 | – | – | –
10 | AVSEIQLMHNLGKH-NH2 [native rPTH(1-14)] | -3.9 Log M and 133 µM | 299 picomole/well | – | – | – | -3.8 Log M and 152 µM | 221 picomole/well | – | – | -3.4 Log M and 449 µM | 376 picomole/well | 222 | – | – | –
